± gives the uncertainty stated by the source.
Assay: self-splicing fitness, log relative to wild type (ln ratio); higher = more splicing; Tetrahymena group I intron in knt gene, E. coli kanamycin selection, DiMSum; sequences stand for … in CUCUCU…GGAGGGAAAAGUUAUCAGGCAUGCACCUGGUAGCUAGUCUUUAAACCAAUAGAUUGCAUCGGUUUAAAAGGCAAGACCGUCAAAUUGCGGGAAAGGGGUCAACAGCCGUUCAGUACCAAGUCUCAGGGGAAACUUUGAGAUGGCCUUGCAAAGGGUAUGGUAAUAAGCUGACGGACAUGGUCCUAACCACGCAGCCAAGUCCUAAGUCAACAGAUCUUCUGUUGAUAUGGAUGCAGUUCACAGACUAAAUGUCGGUCGGGGAAGAUGUAUUCUUCUCAUAAGAUAUAGUCGGACCUCUCCUUAAUGGGAGCUAGCGGAUGAAGUGAUGCAACACUGGAGCCGCUGGGAACUAAUUUGUAUGCGAAAGUAUAUUGAUUAGUUUUGGAGUACUCGUGGUCG
Method in brief: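 A randomised library covering all eight P1ex-region intron nucleotides was built with the intron in the knt kanamycin-resistance gene on pET-22b(+) and held in E. coli BL21(DE3). Cells were grown overnight at 37°C or 30°C on LB agar, with or without 25 μg/mL kanamycin, plus 100 μg/mL carbenicillin, 50 μM IPTG and 0.2% rhamnose, and pooled colonies were amplicon-sequenced on an Illumina HiSeq 2500. DiMSum fitness is the error-weighted combination of wild-type-normalised replicate fold changes, kanamycin versus none.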

Sequence | self-splicing fitness (ln) (30 °C) | self-splicing fitness (ln) (37 °C)
GUCGAGCAAUAUUACGCGCA | -0.713 ± 0.26 | -1.17 ± 0.21
UAUAAGCAAUAUUACGCGUC | -3.23 ± 0.28 | -1.14 ± 0.23
CCUUAGCAAUAUUACGCGCA | -2.45 ± 0.4 | -1.89 ± 0.34
UACAAGCAAUAUUACGCUCC | -2.38 ± 0.17 | -0.668 ± 0.17
GUCAAGCAAUAUUACGUUAC | -3.02 ± 0.17 | -2.96 ± 0.17
UUUCAGCAAUAUUACGGCAG | -0.779 ± 0.17 | 0.0981 ± 0.19
CUGUAGCAAUAUUACGAAUA | -2.54 ± 0.37 | -2.82 ± 0.48
AUGGAGCAAUAUUACGAUAA | -2.21 ± 0.26 | 
AUAUAGCAAUAUUACGGCGA | -0.84 ± 0.12 | -0.69 ± 0.13
CAAAAGCAAUAUUACGACUG | -0.738 ± 0.068 | 0.168 ± 0.099
GUUGAGCAAUAUUACGCCCA | -1.93 ± 0.45 | -1.74 ± 0.38
CAAAAGCAAUAUUACGCUUC | -3.84 ± 0.33 | -1.99 ± 0.24
GCAAAGCAAUAUUACGAUGC | -3.46 ± 0.24 | -2.53 ± 0.32
CGGUAGCAAUAUUACGACCA | -0.494 ± 0.17 | -0.426 ± 0.14
CUUUAGCAAUAUUACGACGA |  | -1.82 ± 0.24
UAAUAGCAAUAUUACGCUCU | -1.03 ± 0.14 | -0.42 ± 0.18
GAGAAGCAAUAUUACGUUCG | -1.38 ± 0.072 | -0.765 ± 0.095
UUUCAGCAAUAUUACGAACU | -1.23 ± 0.092 | 0.244 ± 0.1
CCUUAGCAAUAUUACGCGGG | -3.22 ± 0.16 | -2.21 ± 0.2
CGUCAGCAAUAUUACGUUCU | -1.39 ± 0.098 | -0.462 ± 0.11
AACGAGCAAUAUUACGGUGA | -3.07 ± 0.33 | -1.99 ± 0.31
UCUCAGCAAUAUUACGUGUG | -2.33 ± 0.098 | -2.27 ± 0.11
UGCGAGCAAUAUUACGUACC | -2.77 ± 0.14 | -2.75 ± 0.25
CAAUAGCAAUAUUACGGUGG | -0.89 ± 0.081 | -0.133 ± 0.1
CAGCAGCAAUAUUACGGUUG | -3.04 ± 0.11 | -2.62 ± 0.23

Sequence | self-splicing fitness (ln) (30 °C) | self-splicing fitness (ln) (37 °C)
GGGAAGCAAUAUUACGUGGG | -3.64 ± 0.29 | -2.46 ± 0.24
GAUGAGCAAUAUUACGUCGA | -3.33 ± 0.35 | -2.68 ± 0.3
CUAUAGCAAUAUUACGCUUC | -2.46 ± 0.36 | -1.14 ± 0.31
UGAGAGCAAUAUUACGCCCG | -3.12 ± 0.3 | -0.718 ± 0.21
GAUGAGCAAUAUUACGACUC | -1.68 ± 0.14 | -0.273 ± 0.24
CAUCAGCAAUAUUACGGCUG | -1.76 ± 0.11 | -0.0705 ± 0.16
CGGAAGCAAUAUUACGGUCA | -0.599 ± 0.078 | 0.421 ± 0.08
AGAUAGCAAUAUUACGAUAC | -3.11 ± 0.26 | -0.943 ± 0.19
CUCAAGCAAUAUUACGGCGA | -2.71 ± 0.2 | -1.87 ± 0.23
CUUAAGCAAUAUUACGUGGC |  | 0.00177 ± 0.26
GUCUAGCAAUAUUACGGCAU | -0.166 ± 0.092 | 0.88 ± 0.11
GUCAAGCAAUAUUACGAUCC | -1.48 ± 0.18 | -0.693 ± 0.21
UAGAAGCAAUAUUACGUUGA | -2.99 ± 0.23 | -1.62 ± 0.18
CUUUAGCAAUAUUACGUGAC | -1.42 ± 0.19 | -1.53 ± 0.29
CAUUAGCAAUAUUACGAUGU | -3.45 ± 0.25 | -3.38 ± 0.23
GCCAAGCAAUAUUACGACGU | -0.238 ± 0.099 | 0.0827 ± 0.088
CGGCAGCAAUAUUACGACCC | -0.681 ± 0.19 | 0.752 ± 0.29
AUCAAGCAAUAUUACGAAUG | -3.16 ± 0.13 | -0.57 ± 0.1
CGGCAGCAAUAUUACGGACA | -0.835 ± 0.12 | 0.127 ± 0.11
AUCGAGCAAUAUUACGCGGC | -2.86 ± 0.5 | -3.13 ± 0.47
CUGGAGCAAUAUUACGAGCA | -2.32 ± 0.46 | -2.63 ± 0.42
CUCGAGCAAUAUUACGUGAG | -2.41 ± 0.17 | -2.32 ± 0.23
AAACAGCAAUAUUACGAGCG | -1.93 ± 0.079 | -0.668 ± 0.095
CCAAAGCAAUAUUACGUACA | -3.73 ± 0.23 | -3.32 ± 0.28
AAUCAGCAAUAUUACGACAA | -0.758 ± 0.12 | 0.189 ± 0.14

Sequence | self-splicing fitness (ln) (30 °C) | self-splicing fitness (ln) (37 °C)
GACCAGCAAUAUUACGCACA | -0.51 ± 0.05 | -0.0966 ± 0.07
GUCAAGCAAUAUUACGUUUU | -2.8 ± 0.11 | -0.976 ± 0.1
UCGUAGCAAUAUUACGGGUA | -1.57 ± 0.17 | -0.425 ± 0.16
CCGCAGCAAUAUUACGCGCG | -3.21 ± 0.2 | -1.9 ± 0.17
UUACAGCAAUAUUACGCCCU | -2.55 ± 0.24 | -0.401 ± 0.26
GGCUAGCAAUAUUACGCUUG | -3.03 ± 0.19 | -2.19 ± 0.19
ACUGAGCAAUAUUACGUAUG | -3.4 ± 0.15 | -1.08 ± 0.14
ACGAAGCAAUAUUACGUUGA | -2.14 ± 0.17 | -1.22 ± 0.12
GGUUAGCAAUAUUACGAAUG | -0.2 ± 0.3 | -0.491 ± 0.33
AGGCAGCAAUAUUACGUGCU | -2.46 ± 0.12 | -1.5 ± 0.1
GAAUAGCAAUAUUACGUGUU | -2.18 ± 0.12 | -0.873 ± 0.1
ACUAAGCAAUAUUACGGGUA | -1.77 ± 0.11 | -0.856 ± 0.11
CAGGAGCAAUAUUACGAUAG | -1.19 ± 0.12 | -0.223 ± 0.13
CCUAAGCAAUAUUACGAUGG | -2.4 ± 0.16 | -2.09 ± 0.17
UCUUAGCAAUAUUACGGAUA | -2.68 ± 0.25 | -2.18 ± 0.24
AAUAAGCAAUAUUACGACGU | 0.233 ± 0.057 | 0.618 ± 0.072
CGAUAGCAAUAUUACGGUUC | -3.63 ± 0.27 | -1.96 ± 0.16
AUCUAGCAAUAUUACGCAUC | -4.16 ± 0.47 | -2.81 ± 0.4
UGUGAGCAAUAUUACGGUCC | -3.6 ± 0.48 | -2.09 ± 0.42
GAGUAGCAAUAUUACGCACA | -0.806 ± 0.14 | -0.0514 ± 0.18
GACAAGCAAUAUUACGUGGG | -4.48 ± 0.2 | -1.87 ± 0.12
ACUAAGCAAUAUUACGUCAG | -2.63 ± 0.16 | -1.57 ± 0.23
AGGGAGCAAUAUUACGCGAA | -1.94 ± 0.4 | -1.48 ± 0.29
UUGCAGCAAUAUUACGGUGG | -1.79 ± 0.1 | -0.742 ± 0.1
UACUAGCAAUAUUACGAAGG | -3.46 ± 0.29 | -1.04 ± 0.34

— the supplement of paper PMC7877785
